For orientation: pKd means −log10 of the Kd, conventionally taken in molar units.

Three substances from paper PMC7418704 can be followed below.

pKd: −log10 of the molar value.

The target of the assay is Biotinylated human ACE2 ectodomain (ACROBiosystems AC2-H82E6), native dimeric form (human) (UniProt Q9BYF1). The experiment in a line: FACS. (In general: A flow cytometer gives signals particle by particle.)
Biotinylated human ACE2 ectodomain (ACROBiosystems AC2-H82E6), native dimeric form (human), sequence (Q9BYF1 18-740): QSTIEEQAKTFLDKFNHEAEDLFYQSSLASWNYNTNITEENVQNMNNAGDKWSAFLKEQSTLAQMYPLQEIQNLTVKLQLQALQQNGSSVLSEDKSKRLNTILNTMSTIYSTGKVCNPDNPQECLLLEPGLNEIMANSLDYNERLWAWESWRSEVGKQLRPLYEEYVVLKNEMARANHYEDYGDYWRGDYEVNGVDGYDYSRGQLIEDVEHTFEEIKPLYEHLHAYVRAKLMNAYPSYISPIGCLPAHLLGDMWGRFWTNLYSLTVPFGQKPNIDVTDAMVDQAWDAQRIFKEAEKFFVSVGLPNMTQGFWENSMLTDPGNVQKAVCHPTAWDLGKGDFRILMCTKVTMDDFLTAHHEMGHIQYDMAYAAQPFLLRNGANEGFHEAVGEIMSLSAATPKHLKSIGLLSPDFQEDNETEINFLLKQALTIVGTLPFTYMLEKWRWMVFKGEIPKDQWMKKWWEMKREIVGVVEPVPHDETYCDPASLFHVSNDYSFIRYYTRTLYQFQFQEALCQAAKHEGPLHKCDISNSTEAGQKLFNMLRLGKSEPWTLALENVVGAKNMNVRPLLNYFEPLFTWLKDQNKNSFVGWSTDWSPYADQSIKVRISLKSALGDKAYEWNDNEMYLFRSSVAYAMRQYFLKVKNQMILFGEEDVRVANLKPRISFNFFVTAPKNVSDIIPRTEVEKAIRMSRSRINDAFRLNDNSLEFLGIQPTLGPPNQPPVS
WIV1 RBD, yeast-displayed showed a pKd of 10.77.
The result for ZC45 RBD, yeast-displayed reads less than 6.00.
The substance ZXC21 RBD, yeast-displayed showed a pKd of less than 6.00.
